Experiment in all cases: cell_activity
The subject of series [1] is dLbCas12a-T152R T152R (Lachnospiraceae bacterium ND2006). The note with it: PAM TTTG; PAM-SCANR in E. coli, cutoff 1.67.
The test system of series [2] is dLbCas12a-K538W-K595Y K538W,K595Y (Lachnospiraceae bacterium ND2006).
Series [3] concerns dLbCas12a-T152R-K538W T152R,K538W (Lachnospiraceae bacterium ND2006). The note with it: PAM TTTC; printed column identical to K538W+K595Y column.
Series [4] has as its system wt dLbCas12a (catalytically inactive LbCas12a) (Lachnospiraceae bacterium ND2006). The conditions noted are these: PAM-SCANR in E. coli, cutoff 1.67.
For series [5], the system named is dLbCas12a-G532R-K595R (RR) G532R,K595R (Lachnospiraceae bacterium ND2006). The note with it: PAM-SCANR in E. coli.
Series [6] relates to dLbCas12a-T152R-K538W-K595Y T152R,K538W,K595Y (Lachnospiraceae bacterium ND2006). The note with it: PAM-SCANR in E. coli.
Series [7] concerns dLbCas12a-K538W K538W (Lachnospiraceae bacterium ND2006).
Series [8] relates to dLbCas12a-K595Y K595Y (Lachnospiraceae bacterium ND2006).
[9] abbreviates: PAM CCCC, not recognized by single mutant.

A value given as a limit tells only on which side of the number the result lay.

In patent publication US20210115421 one finds binding signal (normalized score) data, which are given here for nine substances.

In the case of “crRNA targeting lacI promoter ; lacI promoter reporter, TTTG PAM”, the binding signal (normalized score) in series [1] came out at 2.94. Consider “crRNA targeting lacI promoter ; lacI promoter reporter, TTTC PAM”, for which the binding signal (normalized score) was 12 in series [2] (PAM TTTC, printed column identical to T152R+K538W column); 12 in series [3]; 2.96 in series [4] (PAM TTTC). In turn, “crRNA targeting lacI promoter ; lacI promoter reporter, TTCG PAM” returned a binding signal (normalized score) in series [5] (PAM TTCG) of 4.81. Take “crRNA targeting lacI promoter ; lacI promoter reporter, AGCC PAM”: the binding signal (normalized score) in series [6] (PAM AGCC) was found to be 13.7. With “crRNA targeting lacI promoter ; lacI promoter reporter, TTTA PAM”, the binding signal (normalized score) is 4.71 in series [7] (PAM TTTA, PAM-SCANR in E. coli, cutoff 1.67, a second K538W column gives 11.18) and less than 1.67 in series [8] (PAM TTTA, TTTV lost in K595Y). In series [4] (PAM CCGC), “crRNA targeting lacI promoter ; lacI promoter reporter, CCGC PAM” showed a binding signal (normalized score) of 2.23. Regarding “crRNA targeting lacI promoter ; lacI promoter reporter, CCCC PAM”, the binding signal (normalized score) in series [5] (PAM CCCC) is 3.87; in series [7] (setting [9]), less than 1.67; in series [2] (PAM CCCC, PAM-SCANR in E. coli), 2.95; in series [8] (setting [9]), less than 1.67. As for “crRNA targeting lacI promoter ; lacI promoter reporter, TGGC PAM”, the binding signal (normalized score) in series [6] (PAM TGGC) came out at 10.3. Regarding “crRNA targeting lacI promoter ; lacI promoter reporter, TCGC PAM”, the binding signal (normalized score) in series [8] (PAM TCGC, PAM-SCANR in E. coli, cutoff 1.67) is 3.23.
